From the PETadex activity labels (doi:10.1186/s13568-014-0044-9)

B1: unnamed (protein)
chain: MKRTLKRALSLLPAAALAASALVAASPAQAAANPYQRGPNPTEASITAARGPFNTAEITVSRLSVSGFGGGKIYYPTTTSEGTFGAIAISPGFTAYWSSLEWLGHRLASQGFVVIGIETNTTLDQPDQRGQQLLAALDYLTQRSAVRDRVDASRLAVAGHSMGGGGSLEAAKARTSLKAAIPLAPWNLDKTWPEVRTPTLIIGGELDAVAPVATHSIPFYNSLSNAPEKAYLELDNASHFFPNITNTQMAKYMIAWMKRFIDDDTRYTQFLCPPPSTGLLSDFSDARFTCPM
B2: unnamed (protein)
chain: MSLRKSFGLLSATAALVAGLVAAPPAQAAANPYQRGPDPTESLLRAARGPFAVSEQSVSRLSVSGFGGGRIYYPTTTSQGTFGAIAISPGFTASWSSLAWLGPRLASHGFVVIGIETNTRLDQPDSRGRQLLAALDYLTQRSSVRNRVDASRLAVAGHSMGGGGTLEAAKSRTSLKAAIPIAPWNLDKTWPEVRTPTLIIGGELDSIAPVATHSIPFYNSLTNAREKAYLELNNASHFFPQFSNDTMAKFMISWMKRFIDDDTRYDQFLCPPPRAIGDISDYRDTCPHT

Substrate: p-NP-C4
Test: not given
Conditions: pH 8.5; 25 °C

B1 and B2 are within 1.5-fold of each other in Km: 83 µM for the first, 88.8 µM for the second.

Going from B1 to B2, the kcat falls from 12.4 s⁻¹ to 2.3 s⁻¹ (5.4-fold).

Going from B1 to B2, the kcat/Km falls from 149000 M⁻¹ s⁻¹ to 25900 M⁻¹ s⁻¹ (5.8-fold).

Substrate: pNPB
Test: Proxy for plastic degradation [Km]
Conditions: pH 8.5

B1 and B2 are within 1.5-fold of each other in “Proxy for plastic degradation” value: 83.1 µM for the first, 88.8 µM for the second.

Substrate: pNPB
Test: Proxy for plastic degradation [kcat] (s⁻¹)
Conditions: pH 8.5

Going from B1 to B2, the “Proxy for plastic degradation” value falls from 12.4 to 2.3.

Same assay, conditions: pH 8.5; 25 °C

Going from B1 to B2, the “Proxy for plastic degradation” value falls from 12.4 to 2.3.

Substrate: pNPB
Test: Proxy for plastic degradation [Residual activity]
Conditions: pH 8.5; 50 °C; 0 h

B1 and B2 are the same in “Proxy for plastic degradation” value: 100% for the first, 100% for the second.

Same assay, conditions: pH 8.5; 50 °C; 10 h

Going from B1 to B2, the “Proxy for plastic degradation” value rises from 85% to 100%.

Same assay, conditions: pH 8.5; 50 °C; 20 h

Compared with B1, B2 is higher in “Proxy for plastic degradation” value: 75% for the first, 105% for the second.

Same assay, conditions: pH 8.5; 50 °C; 30 h

Compared with B1, B2 is higher in “Proxy for plastic degradation” value: 70% for the first, 110% for the second.

Same assay, conditions: pH 8.5; 50 °C; 45 h

Compared with B1, B2 is higher in “Proxy for plastic degradation” value: 45% for the first, 115% for the second.

Same assay, conditions: pH 8.5; 50 °C; 60 h

Going from B1 to B2, the “Proxy for plastic degradation” value rises from 40% to 114%.

Same assay, conditions: pH 8.5; 55 °C; 0 h

B1 and B2 are the same in “Proxy for plastic degradation” value: 100% for the first, 100% for the second.

Same assay, conditions: pH 8.5; 55 °C; 10 h

First: B1
Second: B2
The “Proxy for plastic degradation” value of the first is lower: 15% for the first, 103% for the second.

Same assay, conditions: pH 8.5; 55 °C; 20 h

First: B1
Second: B2
The “Proxy for plastic degradation” value of the first is lower: 15% for the first, 95% for the second.

Same assay, conditions: pH 8.5; 55 °C; 30 h

First: B1
Second: B2
The “Proxy for plastic degradation” value of the first is lower: 15% for the first, 90% for the second.

Same assay, conditions: pH 8.5; 55 °C; 45 h

Going from B1 to B2, the “Proxy for plastic degradation” value rises from 14% to 89%.

Same assay, conditions: pH 8.5; 55 °C; 60 h

Going from B1 to B2, the “Proxy for plastic degradation” value rises from 15% to 80%.

Same assay, conditions: pH 8.5; 60 °C; 0 h

B1 and B2 are the same in “Proxy for plastic degradation” value: 100% for the first, 100% for the second.

Same assay, conditions: pH 8.5; 60 °C; 10 h

First: B1
Second: B2
The “Proxy for plastic degradation” value of the first is lower: 15% for the first, 35% for the second.

Same assay, conditions: pH 8.5; 60 °C; 20 h

Compared with B1, B2 is higher in “Proxy for plastic degradation” value: 15% for the first, 32% for the second.

Same assay, conditions: pH 8.5; 60 °C; 30 h

First: B1
Second: B2
The “Proxy for plastic degradation” value of the first is lower: 15% for the first, 30% for the second.

Same assay, conditions: pH 8.5; 60 °C; 45 h

First: B1
Second: B2
The “Proxy for plastic degradation” value of the first is lower: 15% for the first, 25% for the second.

Same assay, conditions: pH 8.5; 60 °C; 60 h

Compared with B1, B2 is higher in “Proxy for plastic degradation” value: 14% for the first, 25% for the second.

Substrate: pNPB
Test: Proxy for plastic degradation [Relative activity]
Conditions: 30 °C

Compared with B1, B2 is higher in “Proxy for plastic degradation” value: 25% for the first, 35% for the second.

Same assay, conditions: 40 °C

Going from B1 to B2, the “Proxy for plastic degradation” value rises from 40% to 50%.

Same assay, conditions: 50 °C

Compared with B1, B2 is lower in “Proxy for plastic degradation” value: 75% for the first, 70% for the second.

Same assay, conditions: 55 °C

Going from B1 to B2, the “Proxy for plastic degradation” value falls from 100% to 85%.

Same assay, conditions: 60 °C

Going from B1 to B2, the “Proxy for plastic degradation” value rises from 80% to 100%.

Same assay, conditions: 65 °C

Going from B1 to B2, the “Proxy for plastic degradation” value rises from 50% to 70%.

Same assay, conditions: 70 °C

Compared with B1, B2 is higher in “Proxy for plastic degradation” value: 10% for the first, 35% for the second.

Same assay, conditions: pH 6.5

B1 and B2 are the same in “Proxy for plastic degradation” value: 10% for the first, 10% for the second.

Same assay, conditions: pH 7

B1 and B2 are the same in “Proxy for plastic degradation” value: 22% for the first, 22% for the second.

Same assay, conditions: pH 7.5

Compared with B1, B2 is lower in “Proxy for plastic degradation” value: 55% for the first, 50% for the second.

Same assay, conditions: pH 8

Going from B1 to B2, the “Proxy for plastic degradation” value falls from 95% to 85%.

Same assay, conditions: pH 8.5

B1 and B2 are the same in “Proxy for plastic degradation” value: 100% for the first, 100% for the second.

Same assay, conditions: pH 9

Compared with B1, B2 is higher in “Proxy for plastic degradation” value: 90% for the first, 95% for the second.

Same assay, conditions: pH 9.5

Compared with B1, B2 is higher in “Proxy for plastic degradation” value: 65% for the first, 75% for the second.
